The source of these data is patent publication US20040220079.

Data set [1] has as its target oxidized bovine insulin B chain, P01317.
Data set [2] concerns the target T1, peptide derived from the processing site of presenilin 1 (SVNM/AEGD).
T1 chain: SVNMAEGD

For data set [3], the target named is T2, synthetic peptide PS1-gamma (LVNMAEGD).
T2 chain: LVNMAEGD

For data set [4], the target named is T3, synthetic peptide derived from the APP beta-secretase site (SEVKM/DAEFR).
T3 chain: SEVKMDAEFR

In data set [5] the target is T4, synthetic peptide derived from the APP beta-secretase site containing the Swedish mutation (SEVNL/DAEFR).
T4 chain: SEVNLDAEFR

The target of data set [6] is Native proteins.
Data set [7] has as its target T5, synthetic peptide Nch (VGSGVLLSRK).
T5 chain: VGSGVLLSRK

oxidized bovine insulin B chain, P01317, sequence (P01317 25-54): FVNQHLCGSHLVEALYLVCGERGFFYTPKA

B1: M2pd (modified M2 containing amino acids from Ala-8p to Ala326) (protein)
chain: TQHGIRLPLRSGLGGAPLGLRLPRETDEEPEEPGRRGSFVEMVDNLRGKSGQGYYVEMTVGSPPQTLNILVDTGSSNFAVGAAPHPFLHRYYQRQLSSTYRDLRKGVYVPYTQGKWEGELGTDLVSIPHGPNVTVRANIAAITESDKFFINGSNWEGILGLAYAEIARPDDSLEPFFDSLVKQTHVPNLFSLQLCGAGFPLNQSEVLASVGGSMIIGGIDHSLYTGSLWYTPIRREWYYEVIIVRVEINGQDLKMDCKEYNYDKSIVDSGTTNLRLPKKVFEAAVKSIKAASSTEKFPDGFWLGEQLVCWQAGTTPWNIFPVISLYLMGEVTNQSFRITILPQQYLRPVEDVATSQDDCYKFAISQSSTGTVMGAVIMEGFYVVFDRARKRIGFAVSACHVHDEFRTAAVEGPFVTLDMEDCGYNIPQTDESTLMTIAYVMAAICALFMLPLCLMVCQWRCLRCLRQQHDDFADDISLLK
For the protein B1, the hydrolytic sites in data set [1] is 2 sites; in data set [3] it was “A single cleavage site was observed in synthetic peptide PS1-gamma”; in data set [7], 3 sites. Further, the Km result in data set [2] is given as “Km, 15.2 mM”; in data set [5], “Km, 1 mM”. Also, the kcat result in data set [2] is “kcat, 0.67 s^-1”; in data set [5], “kcat, 2.45 s^-1”. Also, the kcat/Km entry was “kcat/Km, 43.8 s^-1M^-1” in data set [2]; “kcat/Km, 39.9 s^-1M^-1” in data set [4]; “kcat/Km, 2450 s^-1M^-” in data set [5]. Moreover, in data set [5], the “fold increase of kcat/Km over native APP” value is listed as 60-fold increase of kcat/Km over that for native APP. Also, the cleavage of proteins entry in data set [6] is listed as “Native proteins were not cleaved by M2pd”.
